Experiment: soluble on expression in E. coli; label from the status in PepcDB or PDB records

Row | Sequence | soluble on expression in E. coli
1 | MILHAQAKHGKLGLPWLVFLHGFSGDCHEWQEVGEAFADYSRLYVDLLGHGGSAAISVDGFDDVTDLLRKTLVSYNILDFWLVGYSLGGRVAMMAACQGLAGLCGVIVEGGHPGLQNAEQRAERQRSDRQWAQRFRTEPLTAVFADWYQQPVFASLNDDQRRELVALRSNNNGATLAAMLEATSLAVQPDLRANLSARTFAFYYLCGERDSKFRALAAELAADCHVIPRAGHNAHRENPAGVIASLAQILRF | not soluble
2 | GPGSMSRSKEPPLPEELRTRLGQMDGCATAESWESVGNECFSHGCHLSAIRCYTKALEKGSDTANLRSSRSAAYMKSSMFAGPSLALKDAERAAELEPGRCEAHLRVGDAQLARKKYAEAKAAYQKAIELDGSCTAATHALRIVERELFLRSLDEQKKFSPVTEKPSGENTGTTSTGSNAEGPLNMEEEIKKRIQLWAEDTTVREDRTAMRAFNARLDEADRQAGTKYKSELLLKFRGKMAAQEPFRRMVEERRDQEMRMGEGIDYRNADSYRAILTKGTDGVGLGISTDAYKSYKYESKMW | not soluble
3 | MSLSDSQTLVVKLGTSVLTGGSRRLNRAHIVELVRQCAQLHAAGHRIVIVTSGAIAAGREHLGYPELPATIASKQLLAAVGQSRLIQLWEQLFSIYGIHVGQMLLTRADMEDRERFLNARDTLRALLDNNIVPVINENDAVATAAIKVGDNDNLSALAAILAGADKLLLLTDQKGLYTADPRSNPQAELIKDVYGIDDALRAIAGDSVSGLGTGGMSTKLQAADVACRAGIDTIIAAGSKPGVIGDVMEGISVGTLFHAQATPLENRKRWIFGAPPAGEITVDEGATAAILERGSSLLPKGIKSVTGNFSRGEVIRICNLEGRDIAHGVSRYNSDALRRIAGHHSQEIDAILGYEYGPVAVHRDDMITREGHHHHHH | soluble
4 | MFADLDYDIEEDKLGIPTVPGKVTLQKDAQNLIGISIGGGAQYCPCLYIVQVFDNTPAALDGTVAAGDEITGVNGRSIKGKTKVEVAKMIQEVKGEVTIHYNKLQADPKQGMSLDIVLKKVKHRLVENMSSGTADALGLSRAILCNDGLVKRLEELERTAELYKGMTEHTKNLLRAFYELSQTHRAFGDVFSVIGVREPQPAASEAFVKFADAHRSIEKFGIRLLKTIKPMLTDLNTYLNKAIPDTRLTIKKYLDVKFEYLSYCLKVKEMDDEEYSCIALGEPLYRVSTGNYEYRLILRCRQEARARFSQMRKDVLEKMELLDQKHVQDIVFQLQRLVSTMSKYYNDCYAVLRDADVFPIEVDLAHTTLAYGLNQEEFTDGEEEEEEEDTAAGEPSRDTRGAAGPLDKGGSWCDS | soluble
5 | GMPELAVQKVVVHPLVLLSVVDHFNRIGKVGNQKRVVGVLLGSWQKKVLDVSNSFAVPFDEDDKDDSVWFLDHDYLENMYGMFKKVNARERIVGWYHTGPKLHKNDIAINELMKRYCPNSVLVIIDVKPKDLGLPTEAYISVEEVHDDGTPTSKTFEHVTSEIGAEEAEEVGVEHLLRDIKDTTVGT | soluble
6 | MGSDKIHHHHHHMQINNKIIISCSIIASLVSQTTYAQINTGTTSNKLTAFIHAELIIAPGKRLSDATLLVGNNRIKAIIEHGDIPAGAFKIDLSGYTIYPGFIDPFTDYGIEFEYPKLGLTRPVYGIKRIGGNADNGAIHSEKEWFNYVYPNKERAKEWINNGFTSVQSSKLDGIFRGTGVSLSLADKTANEVIYRARSQPFMAFDKGSSEQDYPSSLMGSIALIRPRIQIISATLGQNGEEGVSC | not soluble
7 | MGSDKIHHHHHHMKKALVIGGGFAGCSAAHLLSLQGGWDITVVESGPWLGGGCKTLWYGGHPYTFGPRHFLTQNVPVFDYLNKYCPLRRCNDHVFLTYVEKDAQFYNYPIHIDDVARMPEKDQINKELTEAKQLNGAGAAKDFEEYWLASIGRTLYDKFVNTYSKKMWMLDDNKVMDDFSWSPKGVALKEGPRQAWDTAISAYPIAPNGYDDYFEIATRAEGVKVLWTTIEQYDLPNKTVVIDGEKRTYDAIINTASPDLVMDNAFGELPYIGRDFIKFVLPIAHAFPKDVYFLYYASDEPFTRLVEYKQFTRINYDAESTIIGMEIPSKNGRYYPLPLKTEYERAQKYFDAMGENVFSIGRCGSYQYRVDVDDCIAQAMDSVEKLK | not soluble
8 | MGSDKIHHHHHHVSSLSFNFAPDFRPLAARMRPRSIAEYIGQAHLLGEGQPLRKALEAGRAHSMMLWGPPGTGKTTLAELIAQYSNAHVERISAVTSGVKEIRAAIEQAKAIAESRGQRTLLFVDEVHRFNKSQQDAFLPFIEDGTVIFIGATTENPSFEINNALLSRARVYLIKRLSNNEIAHIVTQALADTERGLGLRQLEMPESVLIKLAQLCDGDARKALNLLELMSDMVSDNDTFTLEMLVQVAGHQVAGFDKNGDQFYDLISAVHKSIRGSAPDAALYWYCRILEGGGDPLYVARRLLAIASEDVGNADPAAMTIALNAWDCFHRVGPAEGERAIAQAIVYLASAPKSNAVYTAFKAARALARETGQESVPHHLRNAPTQLMKEIGMGEGYRYAHDEPNAYASGENYFPESLKTAQFYFPTERGFEKRIKDKLIQLTQLDQVSENKRYD | not soluble
9 | MWRLRMSLGISEAFDLRPDYIISVIKDTRAKLVGFQFPEGLKRKGPELAKKVEKATGAEIIISGDPCFGACDLDRTLLDHVDILFHFGHAELEDIRLSNKVYFIETRSSVDVLHVIEKAVPELKGQKIGLITTVQHVHKLPDVCGVLERMGKTCVIGRGDSRIAYAGQVLGCNFSAARDEDCDEYLYIGSGDFHPLGVALSTKKRVLAADPFSGEVREVDPSRILRQRSAVIAKSLDAQVFGIIVSSKNGQKRMELASSLKELAKKHGKESHLILIDLVTPDQLLQFKVDAFVNTACPRLAIDEVGRFPAPMLTPQEFEIVLGEREWEKLVLDEITEEPVLEHHHHHH | not soluble
10 | MAIKLIAIDMDGTLLLPDHTISPAVKNAIAAARARGVNVVLTTGRPYAGVHNYLKELHMEQPGDYCITYNGALVQKAADGSTVAQTALSYDDYRFLEKLSREVGSHFHALDRTTLYTANRDISYYTVHESFVATIPLVFCEAEKMDPNTQFLKVMMIDEPAILDQAIARIPQEVKEKYTVLKSAPYFLEILDKRVNKGTGVKSLADVLGIKPEEIMAIGDQENDIAMIEYAGVGVAMDNAIPSVKEVANFVTKSNLEDGVAFAIEKYVLN | not soluble
11 | MSLKQPTSTTVTRTDYLKHKVKVPKHPKRIVASYLEDDLVALGIKPVVQWSVKNGSGTQAYLKEQLKGVPLIDYSLPYEAVTKAKPDLILIGTSSAVANGKYAQYNKIAPTYVVKNGTTVTWRQTFLDVAKVVNRQAKAKKVLAKYDKQVQTTRQALKKSGQHKVAVLWVTNNTAYMVNDNSASGALLYQDLQLGEPSLVKQVSKSATADWSAVSLEKLAKLDADDIFLVNSQKSASLFKDPLWKNIKAVKNNHLYQYGDSSSWQYSGPIAYSQMIDMVKTDLLKEGHHHHHH | soluble
12 | ANKLDSKKLTRSNGTTLEYSQITDADNATKAVETLKNSIKLEGSLVVGKTTVEIKEGTVTLKREIEKDGKVKVFLNDTAGSNKKTGKWEDSTSTLTISADSKKTKDLVFLTDGTITVQQYNTAGTSLEGSASEIKNLSELKNALK | soluble
13 | EVQLVQSGAEVKKPGSSVKVSCKASGGTFSNYAINWVRQAPGQGLEWMGGIIPIFNIAHYAQRFQGRVSITADESTSTAYMELSSLRSEDTAVFYCASPYPNDYNDYAPEEGMSWYFDLWGRGTLVTVSPASTKGPSVFPLAPSSKSTSGGTAALGCLVKDYFPEPVTVSWNSGALTSGVHTFPAVLQSSGLYSLSSVVTVPSSSLGTQTYICNVNHKPSNTKVDKKVEPK | soluble
14 | MAIKVGINGFGRIGRSFFRASWGREEIEIVAINDLTDAKHLAHLLKYDSVHGIFKGSVEAKDDSIVVDGKEIKVFAQKDPSQIPWGDLGVDVVIEATGVFRDRENASKHLQGGAKKVIITAPAKNPDITVVLGVNEEKYNPKEHNIISNASCTTNCLAPCVKVLNEAFGVEKGYMVTVHAYTNDQRLLDLPHKDFRRARAAAINIVPTTTGAAKAIGEVIPELKGKLDGTARRVPVPDGSLIDLTVVVNKAPSSVEEVNEKFREAAQKYRESGKVYLKEILQYCEDPIVSTDIVGNPHSAIFDAPLTQVIDNLVHIAAWYDNEWGYSCRLRDLVIYLAERGL | soluble
15 | MAHHHHHHMTAALNRKFDLLQKSGTCPSYLLDVLTLLVAHANETELFKQELRSAPFENAAPPLRADRGMVAAAAPQPEMGTQTVTQPEAPGTEKEVLLAAERTLRAYASDLRKINDIAMATSSKKLREMKMSNFTEMAAFRDRVVSDAVDRAREELELLRMGWLESMNTEVERAKMEVHKVGLSSQKALHKMLEGYRDYVSDGFRLLKTEPLEVMHRAMAECAFCVERLKIMEQQVVPRIEIDALCGRLKSVERVIAQMLKKRHSSGVVDDEISVVPTAGPSETGASTAAAGDDRPLGLRLRDGGNDVEGLIVTEVAPNSLASKARISPGQIISHVGDALVTRRDDFTTAMQKTGSAAKLTIYDPETAVVRILTLKP | soluble
16 | SMCPGCGCGRIIHLGLGTEQVEAYVREHFPHARVDRMDRDTTARRGGHARILRKVAERQTDILIGTQMVAKGHDFPGITLVGILSVESTLNIPDYRSAERTFQLVTQLIGRAGRGDDPGRVLIQSLNP | not soluble
17 | GKQNTSAIEALAPHSVVFTTAGGSSPEFTSSEISEQQAERWKDSTPLGVSQTRIESDQNANTTAVMGLPEGTPLPDSVGGFIEQGALLPAELADFLHVRA | not soluble
18 | MGSDKIHHHHHHMKNKAESLASSSASILTLGLGWFPKNPGGLERYMYELTHKLAANKDQIELCGVGLPEAERNSPIKLTNLASPDSAIWQRLWSIRTNFQKTRTNKPDAINLHFALYSFPLLDILPKGVPVTFNFHGPWASESQQEVVNKNLSLLIKHHLIEKNTYNHCDRFIVLSKAFGKILHDKYQVPWSKINIIPGGVDINWFQPNLSRQDACKQLGWPNNRRIIFTSRRLVHRTGVDKLLKALAIIKPRIPDVWLAIAGRGHIQAALQQQATELGLDDNVKFLGFLPDEQLPIAYQAAELTIMPSQSFEGFGLVIVESLACGTPVLCTPVGGMPEILSEFSPDLITTSTEASAIAEKLEQVLLGNIPIPSREACRHYAVTHYDWNQIAQQVRNVLLN | not soluble
19 | MAPSLDSISHSFANGVASAKQAVNGASTNLAVAGSHLPTTQVTQVDIVEKMLAAPTDSTLELDGYSLNLGDVVSAARKGRPVRVKDSDEIRSKIDKSVEFLRSQLSMSVYGVTTGFGGSADTRTEDAISLQKALLEHQLCGVLPSSFDSFRLGRGLENSLPLEVVRGAMTIRVNSLTRGHSAVRLVVLEALTNFLNHGITPIVPLRGTISASGDLSPLSYIAAAISGHPDSKVHVVHEGKEKILYAREAMALFNLEPVVLGPKEGLGLVNGTAVSASMATLALHDAHMLSLLSQSLTAMTVEAMVGHAGSFHPFLHDVTRPHPTQIEVAGNIRKLLEGSRFAVHHEEEVKVKDDEGILRQDRYPLRTSPQWLGPLVSDLIHAHAVLTIEAGQSTTDNPLIDVENKTSHHGGNFQAAAVANTMEKTRLGLAQIGKLNFTQLTEMLNAGMNRGLPSCLAAEDPSLSYHCKGLDIAAAAYTSELGHLANPVTTHVQPAEMANQAVNSLALISARRTTESNDVLSLLLATHLYCVLQAIDLRAIEFEFKKQFGPAIVSLIDQHFGSAMTGSNLRDELVEKVNKTLAKRLEQTNSYDLVPRWHDAFSFAAGTVVEVLSSTSLSLAAVNAWKVAAAESAISLTRQVRETFWSAASTSSPALSYLSPRTQILYAFVREELGVKARRGDVFLGKQEVTIGSNVSKIYEAIKSGRINNVLLKMLA | soluble

Reference: the DeepSol protein solubility set
